Experimental data published in US20130281677A1 (CEPHALON AUSTRALIA, published 2013).

Experiments:
[1] = target: T1, human FcRn extracellular domain / beta2 microglobulin complex (human, UniProt P55899 24-290; P61769 21-119); assay: ELISA, pH 6.0; FcRn/β2m complex captured by anti-β2m antibody, antibody titrated, anti-human kappa HRP detection
T1 construct: range 24-290;range 21-119; Both chains were co-expressed in HEK293 6E cells and purified on IgG-Sepharose; In the ELISA the complex was captured by a coated anti-β2 microglobulin antibody at pH 6.0; also called FcRn/β2 microglobulin complex
T1 sequence (P55899 24-290 limits assumed, form in doubt, chain 1 of 2): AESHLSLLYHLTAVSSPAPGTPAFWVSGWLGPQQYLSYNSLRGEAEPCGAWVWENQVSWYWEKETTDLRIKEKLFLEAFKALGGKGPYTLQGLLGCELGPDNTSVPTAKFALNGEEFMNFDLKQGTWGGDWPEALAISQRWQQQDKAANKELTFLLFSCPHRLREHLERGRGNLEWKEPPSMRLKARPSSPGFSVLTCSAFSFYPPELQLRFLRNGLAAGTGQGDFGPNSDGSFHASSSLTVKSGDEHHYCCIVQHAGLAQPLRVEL
T1 sequence (P61769 21-119 limits assumed, form in doubt, chain 2 of 2): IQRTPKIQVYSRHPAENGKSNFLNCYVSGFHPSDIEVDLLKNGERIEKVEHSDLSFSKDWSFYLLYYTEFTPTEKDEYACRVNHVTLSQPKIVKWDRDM
Protocol: (§1) Maxisorp 96-well plates (Thermo Fisher Scientific, Rochester, N.Y.) were coated with 5 ug/ml anti-β₂ microglobulin monoclonal antibody. Wells were then washed with PBS and treated with Superblock blocking solution (Thermo Fisher Scientific, Rockford, Ill.). Then, the FcRn/β₂ microglobulin complex was diluted to 5 ug/ml in SPBS6T (50 mM sodium phosphate buffer pH 6.0, 150 mM NaCl, 0.05% Tween-20) and added to allow for capture by the coated anti-β₂ microglobulin antibody for 60 min at room temperature. Wells were then washed by SPBS6T and then exposed to hu39D10 or its the variants in SPBS6T and incubated for 60 min at room temperature. The hu39D10/FcRn complex formed by the incubation was probed with an F(ab′)2 fragment of an anti-human kappa HRP conjugate (SourthernBiotechnology, Birmingham, Ala.; 1/5000 dilution in SPBS6T) for 30 min at room temperature. After washing with SPBS6T, 100 ul of TMB (Sigma) was loaded into each well for signal detection. […] The affinity of the IgG variants to FcRn was calculated and plotted using Prism software by GraphPad Software (La Jolla, Calif.).

[2] = target: T1, human FcRn extracellular domain / beta2 …; assay: ELISA, pH 6.0; ratio of EC50 values against hu39D10 with native IgG4 Fc
Protocol: as §1

Binder	EC50 [1] [nM]	fold increase in affinity for human FcRn against hu39D10 [2] [fold]
hu39D10 (humanized 39D10, anti-IL-5 antibody) with native human IgG4 Fc / kappa (antibody, Full IgG4/kappa expressed in HEK293 6E cells; also called CTIL-5-10gH/-gL6; hu39D10 with unmodified Fc; not shown: human IgG4 heavy chain constant region, native (cloned from Quickclone cDNA library)) heavy: not shown light: DIQMTQSPSSLSASVGDRVTITCLASEGISSYLAWYQQKPGKAPKLLIYGANSLQTGVPSRFSGSGSATDYTLTISSLQPEDFATYYCQQSYKFPNTFGQGTKVEVKRTVAAPSVFIFPPSDEQLKSGTASVVCLLNNFYPREAKVQWKVDNALQSGNSQESVTEQDSKDSTYSLSSTLTLSKADYEKHKVYACEVTHQGLSSPVTKSFNRGEC	3.8	–
hu39D10 with the YTE mutations (M252Y, S254T, T256E) in the IgG4 Fc (antibody, name in EU numbering, domain: IgG4 heavy chain constant region; Substitution positions are EU numbers, not positions on the UniProt entry; also called hu39D10 YTE variant) heavy: EVQLVESGGGLVQPGGSLRLSCAVSGLSLTSNSVNWIRQAPGKGLEWVGLIWSNGDTDYNSAIKSRFTISRDTSKSTVYLQMNSLRAEDTAVYYCAREYYGYFDYWGQGTLVTVSSASTKGPSVFPLAPCSRSTSESTAALGCLVKDYFPEPVTVSWNSGALTSGVHTFPAVLQSSGLYSLSSVVTVPSSSLGTKTYTCNVDHKPSNTKVDKRVESKYGPPCPSCPAPEFLGGPSVFLFPPKPKDTLYITREPEVTCVVVDVSQEDPEVQFNWYVDGVEVHNAKTKPREEQFNSTYRVVSVLTVLHQDWLNGKEYKCKVSNKGLPSSIEKTISKAKGQPREPQVYTLPPSQEEMTKNQVSLTCLVKGFYPSDIAVEWESNGQPENNYKTTPPVLDSDGSFFLYSRLTVDKSRWQEGNVFSCSVMHEALHNHYTQKSLSLSLGK light: DIQMTQSPSSLSASVGDRVTITCLASEGISSYLAWYQQKPGKAPKLLIYGANSLQTGVPSRFSGSGSATDYTLTISSLQPEDFATYYCQQSYKFPNTFGQGTKVEVKRTVAAPSVFIFPPSDEQLKSGTASVVCLLNNFYPREAKVQWKVDNALQSGNSQESVTEQDSKDSTYSLSSTLTLSKADYEKHKVYACEVTHQGLSSPVTKSFNRGEC	0.81	4.7
hu39D10 with the YTE mutations and the S228P hinge mutation (YTE+S228P) in IgG4 (antibody, also called hu39D10 with the 4 amino acid substitutions; S228P+YTE variant) heavy: EVQLVESGGGLVQPGGSLRLSCAVSGLSLTSNSVNWIRQAPGKGLEWVGLIWSNGDTDYNSAIKSRFTISRDTSKSTVYLQMNSLRAEDTAVYYCAREYYGYFDYWGQGTLVTVSSASTKGPSVFPLAPCSRSTSESTAALGCLVKDYFPEPVTVSWNSGALTSGVHTFPAVLQSSGLYSLSSVVTVPSSSLGTKTYTCNVDHKPSNTKVDKRVESKYGPPCPPCPAPEFLGGPSVFLFPPKPKDTLYITREPEVTCVVVDVSQEDPEVQFNWYVDGVEVHNAKTKPREEQFNSTYRVVSVLTVLHQDWLNGKEYKCKVSNKGLPSSIEKTISKAKGQPREPQVYTLPPSQEEMTKNQVSLTCLVKGFYPSDIAVEWESNGQPENNYKTTPPVLDSDGSFFLYSRLTVDKSRWQEGNVFSCSVMHEALHNHYTQKSLSLSLGK light: DIQMTQSPSSLSASVGDRVTITCLASEGISSYLAWYQQKPGKAPKLLIYGANSLQTGVPSRFSGSGSATDYTLTISSLQPEDFATYYCQQSYKFPNTFGQGTKVEVKRTVAAPSVFIFPPSDEQLKSGTASVVCLLNNFYPREAKVQWKVDNALQSGNSQESVTEQDSKDSTYSLSSTLTLSKADYEKHKVYACEVTHQGLSSPVTKSFNRGEC	0.81	–
